Data taken from patent US20230374088A1 (GENERAL HOSPITAL, published 2023).
Values belong to the binder of their own block, whether it stands above or below them.

Tests used:
Kif7-DM-GFP (1-543aa) [1] = target: T1, Kif7-DM-GFP (1-543aa) (human, UniProt Q2M1P5 1-543); assay: cell-based or functional assay
T1 sequence: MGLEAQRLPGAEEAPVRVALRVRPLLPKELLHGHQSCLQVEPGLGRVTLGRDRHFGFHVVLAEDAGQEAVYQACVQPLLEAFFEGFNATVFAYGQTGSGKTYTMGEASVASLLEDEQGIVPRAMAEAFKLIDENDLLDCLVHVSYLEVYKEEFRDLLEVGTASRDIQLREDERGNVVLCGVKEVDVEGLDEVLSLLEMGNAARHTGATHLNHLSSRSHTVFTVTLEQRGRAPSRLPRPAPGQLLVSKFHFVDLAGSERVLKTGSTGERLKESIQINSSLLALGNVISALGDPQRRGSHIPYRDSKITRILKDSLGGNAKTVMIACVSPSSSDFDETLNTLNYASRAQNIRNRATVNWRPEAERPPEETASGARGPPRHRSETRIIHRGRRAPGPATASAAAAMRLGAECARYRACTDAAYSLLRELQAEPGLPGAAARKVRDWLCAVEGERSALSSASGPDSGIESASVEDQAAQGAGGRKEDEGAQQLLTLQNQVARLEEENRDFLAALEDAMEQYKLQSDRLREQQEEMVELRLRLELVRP

Kif7-DM-GFP (1-543aa) [2] = target: T1, Kif7-DM-GFP (1-543aa); assay: BLI; HIS-tagged, GFP-tagged kinesin on anti-penta-HIS sensor, Gli2-ZF as analyte, Hill fit
Procedure: (§1) Data represent mean and standard deviation from three independent repeats. The plots of binding response versus Gli2-ZF concentration were fit to a Hill equation to determine equilibrium dissociation constants (Kd).
(§2) BLI experiments were performed in an Octet Red 96 instrument (ForteBio). To quantify Kif7-Gli2 binding, Experiments were performed in an assay buffer containing 40 mM TRIS pH7.3, 40 mM KCl, 40 μM ATP 1 mM MgCl₂, 0.12% tween and 0.5 mM TCEP. In the simplest assay, dimeric GST-Kif7-CC at a concentration of 120 nM is immobilized on an anti-GST biosensor chip. Unbound Kif7 is washed away with buffer, and the chips are then dipped into buffer with a range of Gli2-ZF concentrations from 0-1 μM to allow for association of the two proteins. After 300 seconds, they are then moved back into a well with just buffer to allow dissociation for 400 seconds. The equilibrium response of each sensor from three independent repeats at each Gli2 concentration were normalized and plotted against Gli2 concentration and fitted with a Hill function to obtain a Kₜ. […] The assays were also performed with HIS-tagged Kif7-DM and the Kif7-Kif27 chimeric proteins, requiring the use of an anti-penta-HIS biosensor chip, and referencing sensors to account for non-specific binding of Gli2 to the HIS sensor. A flipped assay, using HIS-tagged Gli2 on the sensor and a range of Kif7 concentrations in buffer, was also conducted.

Kif7M-Kif27CC chimera = target: T2, Kif7M-Kif27CC chimera (human, UniProt Q86VH2 475-570); assay: as above
T2 construct: range 475-570; not shown: HIS tag (used for BLI); GFP tag
T2 sequence: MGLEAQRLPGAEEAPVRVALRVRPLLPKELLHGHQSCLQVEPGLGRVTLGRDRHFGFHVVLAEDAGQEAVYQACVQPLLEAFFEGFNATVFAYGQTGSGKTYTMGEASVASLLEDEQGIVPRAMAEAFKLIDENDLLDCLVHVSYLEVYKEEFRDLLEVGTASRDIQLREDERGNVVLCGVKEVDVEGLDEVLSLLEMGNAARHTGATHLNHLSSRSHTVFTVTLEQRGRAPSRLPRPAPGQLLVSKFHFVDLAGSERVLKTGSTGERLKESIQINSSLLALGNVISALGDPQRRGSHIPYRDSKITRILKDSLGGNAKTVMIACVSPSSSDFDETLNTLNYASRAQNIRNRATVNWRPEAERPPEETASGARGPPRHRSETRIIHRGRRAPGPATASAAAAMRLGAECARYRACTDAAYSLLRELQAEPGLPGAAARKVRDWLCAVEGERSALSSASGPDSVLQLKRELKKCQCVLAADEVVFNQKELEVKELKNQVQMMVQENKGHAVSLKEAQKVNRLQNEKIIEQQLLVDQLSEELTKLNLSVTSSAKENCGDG
Procedure: as §1, §2

Kif27M-Kif7CC chimera = target: T3, Kif27M-Kif7CC chimera (human, UniProt Q86VH2 1-475); assay: as above
T3 construct: range 1-475; not shown: HIS tag (used for BLI); GFP tag
T3 sequence: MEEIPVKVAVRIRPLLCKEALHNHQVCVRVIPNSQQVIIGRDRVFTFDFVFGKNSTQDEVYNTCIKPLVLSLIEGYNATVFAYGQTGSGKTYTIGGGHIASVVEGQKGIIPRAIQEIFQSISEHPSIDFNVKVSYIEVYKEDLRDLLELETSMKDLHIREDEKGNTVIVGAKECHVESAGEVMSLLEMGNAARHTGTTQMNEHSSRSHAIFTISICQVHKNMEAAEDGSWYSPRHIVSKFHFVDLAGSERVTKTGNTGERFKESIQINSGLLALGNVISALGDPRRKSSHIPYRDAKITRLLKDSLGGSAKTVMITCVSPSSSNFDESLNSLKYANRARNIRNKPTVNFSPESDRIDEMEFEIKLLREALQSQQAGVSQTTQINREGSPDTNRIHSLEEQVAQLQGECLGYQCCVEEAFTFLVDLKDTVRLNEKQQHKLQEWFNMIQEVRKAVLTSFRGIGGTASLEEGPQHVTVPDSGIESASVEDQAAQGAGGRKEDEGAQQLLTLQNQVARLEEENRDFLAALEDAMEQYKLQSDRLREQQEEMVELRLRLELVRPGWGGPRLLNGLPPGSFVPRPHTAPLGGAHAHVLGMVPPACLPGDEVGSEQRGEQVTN
Procedure: as §1, §2

GST-Kif7-CC (460-600aa) = target: T4, GST-Kif7-CC (460-600aa) (human, UniProt Q2M1P5 460-600); assay: BLI, GST-Kif7-CC on the sensor, Gli2-ZF titrated in the presence of 125 nM Gli2 target dsDNA (competitor); not an affinity of the free pair [panel A]
T4 construct: held on the BLI sensor through the GST tag; also called Kif7 coiled-coil domain; coiled-coil dimerization domain fragment of Kif7; not shown: N-terminal GST tag (HRV protease cleavable, modified pGEX vector)
T4 sequence: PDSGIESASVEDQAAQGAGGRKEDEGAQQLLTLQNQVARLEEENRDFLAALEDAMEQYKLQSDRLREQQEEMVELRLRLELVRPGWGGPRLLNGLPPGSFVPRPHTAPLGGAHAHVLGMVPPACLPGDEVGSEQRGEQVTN
Procedure: as §2

FLAG-Kif7 (544-1343aa) = target: T5, FLAG-Kif7 (544-1343aa) (human, UniProt Q2M1P5 544-1343); assay: pull-down on anti-FLAG beads, anti-c-myc blot, Expi293F cells
T5 construct: Expressed in Expi293F cells for the pull-down; also called C-terminal half of Kif7; not shown: FLAG tag from pCMV-BICEP-4 (MCS1), N-terminal by the name
T5 sequence: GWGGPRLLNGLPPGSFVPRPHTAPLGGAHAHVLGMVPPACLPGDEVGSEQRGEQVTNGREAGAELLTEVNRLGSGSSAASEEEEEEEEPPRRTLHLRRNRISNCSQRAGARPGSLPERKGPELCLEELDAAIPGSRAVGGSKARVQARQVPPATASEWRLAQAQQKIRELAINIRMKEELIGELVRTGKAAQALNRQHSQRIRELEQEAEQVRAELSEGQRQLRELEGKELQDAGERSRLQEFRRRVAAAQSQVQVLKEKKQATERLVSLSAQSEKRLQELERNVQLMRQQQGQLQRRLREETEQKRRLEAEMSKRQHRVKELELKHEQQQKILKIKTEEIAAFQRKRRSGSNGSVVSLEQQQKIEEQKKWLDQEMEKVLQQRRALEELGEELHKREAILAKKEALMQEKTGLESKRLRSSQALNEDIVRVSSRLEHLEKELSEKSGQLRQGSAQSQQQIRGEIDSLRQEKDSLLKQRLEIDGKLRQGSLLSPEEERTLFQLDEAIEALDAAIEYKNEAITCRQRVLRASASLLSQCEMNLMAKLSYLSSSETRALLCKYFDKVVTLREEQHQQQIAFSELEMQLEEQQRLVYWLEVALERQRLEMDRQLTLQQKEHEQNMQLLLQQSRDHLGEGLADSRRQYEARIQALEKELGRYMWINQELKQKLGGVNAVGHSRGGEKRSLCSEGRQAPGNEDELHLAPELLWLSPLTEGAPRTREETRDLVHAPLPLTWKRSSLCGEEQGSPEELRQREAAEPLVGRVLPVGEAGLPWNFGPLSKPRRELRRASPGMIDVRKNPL
Excerpt: Immunoprecipitation (IP) using anti-FLAG magnetic beads. Input (cell lysate), FT (flow through), wash and beads samples were immunoblotted (IB) with anti c-Myc antibody to detect Gli2. […] The blots are representative images of a minimum of three repeats. Gli2-ZF mutants are as follows: ZF2-mut (H493A, R496A), ZF3-mut (H503A, R516A, K521A), ZF4-mut (R550A, K552A, R556A). Kif7-CC mutants are as follows: S1-mut (E500A, E501A, E502A, D505A), S2-mut (E511A, E515A), S3-mut1 (E526A, E529A) and S3-mut2 (E530A, R535A).
To narrow down the residues that participate in binding, we analyzed the model of the Kif7-SCC:Gli2-ZF complex using PDBsum server (De Beer et al., Nucleic acids research, 42, D292-D296, 2014). We performed alanine scanning mutagenesis of the charged residues on Gli2-ZF that came up as part of the binding interface in the PDBsum analysis and analyzed their binding with pull-down assay (FIG. 3D). […] We systematically mutated the residues to alanine and performed the pull-down assay with Gli2-ZF.

Kif7 fluorescence intensity on microtubules (TIRF) (Kif7-DM-GFP (1-543aa) [1]): > 5 fold | Kd (Kif7-DM-GFP (1-543aa) [2]): 217 nM | Kd (Kif7M-Kif27CC chimera): 397 nM | Kd (Kif27M-Kif7CC chimera): 213 nM | EC50 (read off the curve) (GST-Kif7-CC (460-600aa)): ~200 nM
B1: Gli2-ZF (418-604aa; zinc finger domain of Gli2) (other, human, UniProt P10070 418-604, looked up)
chain: KEDLDRDDCKQEAEVVIYETNCHWEDCTKEYDTQEQLVHHINNEHIHGEKKEFVCRWQACTREQKPFKAQYMLVVHMRRHTGEKPHKCTFEGCSKAYSRLENLKTHLRSHTGEKPYVCEHEGCNKAFSNASDRAKHQNRTHSNEKPYICKIPGCTKRYTDPSSLRKHVKTVHGPDAHVTKKQRNDVH
notes: Expressed with an HRV-cleavable N-terminal 6xHis tag, cleaved 'if needed'; also called Gli-ZF

binding result (FLAG-Kif7 (544-1343aa)): no binding
B2: c-Myc-Gli2 (1-594aa) (other, human, UniProt P10070 1-594, looked up)
chain: METSASATASEKQEAKSGILEAAGFPDPGKKASPLVVAAAAAAAVAAQGVPQHLLPPFHAPLPIDMRHQEGRYHYEPHSVHGVHGPPALSGSPVISDISLIRLSPHPAGPGESPFNAPHPYVNPHMEHYLRSVHSSPTLSMISAARGLSPADVAQEHLKERGLFGLPAPGTTPSDYYHQMTLVAGHPAPYGDLLMQSGGAASAPHLHDYLNPVDVSRFSSPRVTPRLSRKRALSISPLSDASLDLQRMIRTSPNSLVAYINNSRSSSAASGSYGHLSAGALSPAFTFPHPINPVAYQQILSQQRGLGSAFGHTPPLIQPSPTFLAQQPMALTSINATPTQLSSSSNCLSDTNQNKQSSESAVSSTVNPVAIHKRSKVKTEPEGLRPASPLALTQGQVSGHGSCGCALPLSQEQLADLKEDLDRDDCKQEAEVVIYETNCHWEDCTKEYDTQEQLVHHINNEHIHGEKKEFVCRWQACTREQKPFKAQYMLVVHMRRHTGEKPHKCTFEGCSKAYSRLENLKTHLRSHTGEKPYVCEHEGCNKAFSNASDRAKHQNRTHSNEKPYICKIPGCTKRYTDPSSLRKHVKTVHGPDAH
notes: Expressed in Expi293F cells for the pull-down; also called N-terminal half of Gli2; not shown: c-myc tag from pCMV-BICEP-4 (MCS2), N-terminal by the name
